Reference: patent US20260167714A1 (COHERUS BIOSCIENCES, published 2026)

Key:
[1] = molecular target: T1, human ILT4 expressed on cells (human, UniProt Q8N423 22-597); assay: flow cytometry, blockade of PE-HLA-G tetramer binding to CHO-S/ILT4 cells, experiment 2
T1 construct: whole, on cells; also called CHO-S/ILT4 cells; ILT4-CHO cells
Procedure: (§1) In the second blocking experiment, the primary antibody dilutions were made by diluting antibody to 15 μg/ml in FACS buffer. Three independent sets of eleven 2.5-fold serial dilutions were then made in FACS buffer from 15 μg/ml to 0.002 μg/ml. Each dilution set was handled independently, and 50 μl from each was added to cells in duplicate. Control wells received FACS buffer with no antibody. Wells were mixed and incubated for 30 minutes at 4 degrees C. Cells were washed twice in FACS buffer.
(§2) In both blocking experiments, phycoerythrin (PE)-conjugated HLA-G tetramer was diluted in FACS buffer to 5 μg/ml and 100 μl per well was added to cells. Cells were incubated at 4 degrees C. for 30 minutes, washed twice in FACS buffer, and resuspended in 250 μl FACS buffer with 0.1 μg/ml propidium iodide.
(§3) Cells were acquired on an Attune flow cytometer, with 5000 propidium iodide-negative cells collected per sample, and MFI was recorded. Relative blocking activity was calculated with the following formula: 100−(Sample MFI−Background MFI)/(Top MFI−Background MFI)*100. Prism software (Graphpad) was used to plot MFI and relative blocking activity for each sample. The blocking potency for each antibody, represented as IC₅₀, was calculated with Prism software.

[2] = molecular target: T1, human ILT4 expressed on cells; assay: flow cytometry, blockade of PE-HLA-G tetramer (5 µg/ml) binding to CHO-S/ILT4 cells, experiment 2
Procedure: as §1, §2, §3

[3] = molecular target: T1, human ILT4 expressed on cells; assay: flow cytometry blocking assay: ILT4-expressing CHO cells preincubated with antibody, then PE-HLA-G; HLA-G binding MFI falls from about 105000 (no antibody) to near 0
Procedure: as §1, §2, §3

[4] = molecular target: T1, human ILT4 expressed on cells; assay: cell-based or functional assay
[5] = molecular target: T2, recombinant human ILT4 (LILRB2) (human, UniProt Q8N423 22-460); assay: SPR, Biacore T200, mAb captured on anti-Fc, ILT4 injected, medium resolution, 25 C
T2 construct: Bought protein (Acro Biosystems or R&D Systems); also called ILTR4
T2 sequence (Q8N423 other isoform, or with tags, fused parts or gaps limits assumed): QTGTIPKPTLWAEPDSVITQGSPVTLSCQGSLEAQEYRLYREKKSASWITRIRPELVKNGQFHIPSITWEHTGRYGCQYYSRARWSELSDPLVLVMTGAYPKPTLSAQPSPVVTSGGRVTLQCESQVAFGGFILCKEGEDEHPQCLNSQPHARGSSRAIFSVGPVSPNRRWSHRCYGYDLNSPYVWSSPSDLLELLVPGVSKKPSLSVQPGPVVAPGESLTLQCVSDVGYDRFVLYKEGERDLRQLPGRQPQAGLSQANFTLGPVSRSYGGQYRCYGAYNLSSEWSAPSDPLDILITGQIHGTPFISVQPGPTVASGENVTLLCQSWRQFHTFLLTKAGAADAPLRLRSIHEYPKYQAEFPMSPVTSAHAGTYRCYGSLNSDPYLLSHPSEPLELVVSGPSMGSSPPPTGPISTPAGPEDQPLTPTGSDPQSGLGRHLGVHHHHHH
Procedure: (§4) Label-free SPR analysis on a Biacore T200 instrument was utilized to measure antibody affinity to ILT4. CM4 sensor chips from Cytiva Inc. were utilized for all medium resolution analyses. Either anti-mouse Fc specific or anti-human Fc specific capture surfaces were prepared using standard amine coupling chemistry. Mouse, Chimera or Humanized mAbs were captured to their respective surfaces and ILT4 was injected across the surfaces from 101 nM to 0.79 nM in a 2-fold serial dilution series at a flow rate of 100 μL/min. The association phase was followed for 90 sec. while the dissociation phase was followed for 1200 sec. due to the medium resolution analysis implemented here. The sensorgrams were double-referenced and fit globally to a 1:1 interaction model with a term included for mass transport, and the equilibrium dissociation constant was calculated as KD=koff/kₒₙ. […] All kinetic experiments were performed at 25° C. in a buffer consisting of Hepes-buffered saline, pH 7.4, with 0.05% polysorbate 20 (HBS-P+) and 100 μg/ml Bovine Serum Albumin (BSA).

[6] = molecular target: T2, recombinant human ILT4 (LILRB2); assay: SPR, high resolution kinetics, triplicate, LALA antibody; 95% CI in parentheses
[7] = molecular target: T2, recombinant human ILT4 (LILRB2); assay: KinExA, solution equilibrium, n-curve analysis
Procedure: Kinetic Exclusion Assay (KinExA®) was performed to measure the equilibrium binding affinity and kinetics between human ILT4 and four humanized LALA-Fc modified antibodies in solution. For affinity analysis, the equilibrium dissociation constant, KD, was experimentally determined and reflects the strength of the binding interaction. The rate of association, kₒₙ, was also experimentally determined, while the rate of dissociation, koff, is calculated based on the following equation: koff=KD×kₒₙ
The binding affinity (KD), association (kₒₙ), and dissociation rate constants (koff) were measured for 4 different Humanized LALA IgG antibodies to ILT4 using KinExA. An n-curve analysis of at least two different curves, run at two different CBP concentrations, was used to determine the KD of the interactions The ILT4 was used as the concentration reference for all curves. All of the binding systems have low error and well defined 95% confidence intervals giving confidence to the measurements: […]

LILRA2 = molecular target: T3, LILRA2 (human, UniProt Q8N149 24-449); assay: SPR, Biacore 8K, mAb captured on anti-human Fc, analyte injected
T3 construct: Bought protein; limits of the extracellular domain are marked by bold type not visible here; whole entry named; also called recombinant human LILRA2
T3 sequence (Q8N149 other isoform, or with tags, fused parts or gaps): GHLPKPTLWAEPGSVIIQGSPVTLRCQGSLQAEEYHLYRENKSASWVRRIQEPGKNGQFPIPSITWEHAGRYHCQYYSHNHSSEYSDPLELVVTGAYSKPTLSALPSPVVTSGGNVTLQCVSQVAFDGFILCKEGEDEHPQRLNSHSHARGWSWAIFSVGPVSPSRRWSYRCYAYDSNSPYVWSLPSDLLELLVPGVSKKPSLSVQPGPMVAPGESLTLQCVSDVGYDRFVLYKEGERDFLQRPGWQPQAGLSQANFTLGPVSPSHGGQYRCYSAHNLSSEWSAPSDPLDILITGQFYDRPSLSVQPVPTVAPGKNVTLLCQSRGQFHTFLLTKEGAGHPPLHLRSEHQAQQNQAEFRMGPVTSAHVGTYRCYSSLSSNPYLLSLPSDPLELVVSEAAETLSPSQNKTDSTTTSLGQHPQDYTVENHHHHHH
Procedure: (§5) SPR was used to determine the specificity of four humanized anti-ILT4 mAbs for binding to LILRB2 and to determine any cross-reactivity with nine other LILRA and LILRB family members. LILR proteins were purchased from Acro Biosystems or R&D Systems, with sequence provided below. The studies were performed with a Biacore 8K instrument using a CM4 sensor chip with a running buffer of HBS-P+, 100 μg/mL BSA. Anti-human Fc specific capture surfaces were prepared using standard amine coupling chemistry. MAb was captured to flow cell 2 with flow cell 1 serving as the reference flow cell. Each of the nine family members and LILRB2 were injected at 100 nM at 30 μL/min for 90 sec with 240 sec of dissociation. […] All sensorgrams were doubled-referenced during processing of the data.

LILRB3 = molecular target: T4, LILRB3 (human, UniProt O75022 24-443); assay: as above
T4 construct: Bought protein; limits of the extracellular domain are marked by bold type not visible here; whole entry named; also called recombinant human LILRB3; ILT5
T4 sequence (O75022 other isoform, or with tags, fused parts or gaps): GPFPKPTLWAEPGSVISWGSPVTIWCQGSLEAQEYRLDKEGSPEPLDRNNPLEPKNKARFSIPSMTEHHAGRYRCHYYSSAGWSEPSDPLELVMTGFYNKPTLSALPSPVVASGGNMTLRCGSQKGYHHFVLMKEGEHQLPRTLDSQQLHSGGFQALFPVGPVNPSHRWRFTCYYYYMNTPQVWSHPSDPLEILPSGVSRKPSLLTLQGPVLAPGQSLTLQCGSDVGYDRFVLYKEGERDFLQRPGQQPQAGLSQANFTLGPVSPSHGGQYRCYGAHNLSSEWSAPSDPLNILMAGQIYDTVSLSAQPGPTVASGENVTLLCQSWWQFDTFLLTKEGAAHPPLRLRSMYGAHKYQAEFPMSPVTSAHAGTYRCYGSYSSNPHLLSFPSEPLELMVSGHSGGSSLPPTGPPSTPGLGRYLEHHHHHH
Procedure: as §5

LILRB4 = molecular target: T5, LILRB4 (human, UniProt Q8NHJ6 22-259); assay: as above
T5 construct: Bought protein; limits of the extracellular domain are marked by bold type not visible here; whole entry named; also called recombinant human LILRB4; ILT3
T5 sequence (Q8NHJ6 other isoform, or with tags, fused parts or gaps): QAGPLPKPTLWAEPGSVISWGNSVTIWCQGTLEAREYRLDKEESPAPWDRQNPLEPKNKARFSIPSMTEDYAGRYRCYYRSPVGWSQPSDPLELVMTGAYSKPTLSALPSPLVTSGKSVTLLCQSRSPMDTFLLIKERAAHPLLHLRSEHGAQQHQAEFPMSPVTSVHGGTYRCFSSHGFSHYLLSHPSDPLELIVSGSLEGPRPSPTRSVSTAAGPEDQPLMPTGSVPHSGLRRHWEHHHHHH
Procedure: as §5

LILRA3 = molecular target: T6, LILRA3 (human, UniProt Q8N6C8 24-439); assay: as above
T6 construct: Bought protein; limits of the part used are marked by bold type not visible here; whole entry named; also called recombinant human LILRA3
T6 sequence (Q8N6C8 24-439 A105V limits assumed): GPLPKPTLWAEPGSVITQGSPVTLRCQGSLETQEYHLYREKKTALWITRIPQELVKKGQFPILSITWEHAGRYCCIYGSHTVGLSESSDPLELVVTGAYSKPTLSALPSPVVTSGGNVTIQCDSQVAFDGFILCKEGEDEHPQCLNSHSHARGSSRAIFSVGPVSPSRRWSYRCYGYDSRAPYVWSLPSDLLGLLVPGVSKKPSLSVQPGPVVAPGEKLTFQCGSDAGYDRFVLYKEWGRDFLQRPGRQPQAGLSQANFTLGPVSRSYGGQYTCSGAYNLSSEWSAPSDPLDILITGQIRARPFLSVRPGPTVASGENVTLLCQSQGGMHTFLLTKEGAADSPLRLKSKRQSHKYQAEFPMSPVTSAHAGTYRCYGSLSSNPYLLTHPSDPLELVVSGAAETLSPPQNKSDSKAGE
Procedure: as §5

LILRA1 = molecular target: T7, LILRA1 (human, UniProt O75019 17-461); assay: as above
T7 construct: Bought protein; limits of the extracellular domain are marked by bold type not visible here; whole entry named; also called recombinant human LILRA1
T7 sequence (O75019 other isoform, or with tags, fused parts or gaps): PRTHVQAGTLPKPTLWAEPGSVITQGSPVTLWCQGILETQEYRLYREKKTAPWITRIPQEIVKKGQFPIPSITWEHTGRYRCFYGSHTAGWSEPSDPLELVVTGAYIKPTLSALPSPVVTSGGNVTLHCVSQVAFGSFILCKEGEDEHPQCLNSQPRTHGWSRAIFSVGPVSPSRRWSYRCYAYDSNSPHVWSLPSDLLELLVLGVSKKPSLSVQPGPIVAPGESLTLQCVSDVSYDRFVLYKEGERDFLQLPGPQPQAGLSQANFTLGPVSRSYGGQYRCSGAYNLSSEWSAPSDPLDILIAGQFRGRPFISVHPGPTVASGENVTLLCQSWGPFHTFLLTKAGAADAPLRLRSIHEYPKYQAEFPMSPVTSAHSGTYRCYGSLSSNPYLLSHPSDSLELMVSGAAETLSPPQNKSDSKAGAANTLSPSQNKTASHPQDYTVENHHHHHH
Procedure: as §5

LILRA4 = molecular target: T8, LILRA4 (human, UniProt P59901 24-446); assay: as above
T8 construct: Bought protein; limits of the extracellular domain are marked by bold type not visible here; whole entry named; also called recombinant human LILRA4
T8 sequence (P59901 other isoform, or with tags, fused parts or gaps): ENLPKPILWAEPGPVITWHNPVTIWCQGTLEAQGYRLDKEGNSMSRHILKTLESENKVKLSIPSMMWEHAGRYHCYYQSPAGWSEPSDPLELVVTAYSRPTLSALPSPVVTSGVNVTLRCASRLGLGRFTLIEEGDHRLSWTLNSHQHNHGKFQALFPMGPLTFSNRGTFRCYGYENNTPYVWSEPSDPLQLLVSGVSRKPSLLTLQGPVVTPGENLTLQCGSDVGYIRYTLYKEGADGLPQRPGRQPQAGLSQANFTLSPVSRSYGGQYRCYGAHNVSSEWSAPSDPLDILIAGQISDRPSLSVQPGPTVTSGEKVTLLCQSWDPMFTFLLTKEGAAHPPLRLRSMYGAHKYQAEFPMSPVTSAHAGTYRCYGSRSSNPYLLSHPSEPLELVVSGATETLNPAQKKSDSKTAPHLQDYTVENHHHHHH
Procedure: as §5

LILRA6 = molecular target: T9, LILRA6 (human, UniProt Q6PI73 24-447); assay: as above
T9 construct: Bought protein; limits of the extracellular domain are marked by bold type not visible here; whole entry named; also called recombinant human LILRA6
T9 sequence (Q6PI73 other isoform, or with tags, fused parts or gaps): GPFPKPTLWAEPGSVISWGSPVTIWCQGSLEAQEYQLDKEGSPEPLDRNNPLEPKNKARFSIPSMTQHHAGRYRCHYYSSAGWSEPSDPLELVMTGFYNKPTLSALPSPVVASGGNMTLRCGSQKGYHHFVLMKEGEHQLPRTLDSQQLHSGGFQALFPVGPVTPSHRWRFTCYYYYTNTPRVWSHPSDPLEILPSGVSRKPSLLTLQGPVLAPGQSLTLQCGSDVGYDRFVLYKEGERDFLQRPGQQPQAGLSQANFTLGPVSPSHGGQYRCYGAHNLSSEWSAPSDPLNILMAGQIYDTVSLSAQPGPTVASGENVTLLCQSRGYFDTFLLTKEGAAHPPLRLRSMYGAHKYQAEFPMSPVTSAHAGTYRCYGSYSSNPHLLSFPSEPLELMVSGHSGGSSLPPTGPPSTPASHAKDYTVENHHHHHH
Procedure: as §5

LILRA5 = molecular target: T10, LILRA5 (human, UniProt A6NI73 42-268); assay: as above
T10 construct: Bought protein; limits of the extracellular domain are marked by bold type not visible here; whole entry named; also called recombinant human LILRA5
T10 sequence (A6NI73 other isoform, or with tags, fused parts or gaps): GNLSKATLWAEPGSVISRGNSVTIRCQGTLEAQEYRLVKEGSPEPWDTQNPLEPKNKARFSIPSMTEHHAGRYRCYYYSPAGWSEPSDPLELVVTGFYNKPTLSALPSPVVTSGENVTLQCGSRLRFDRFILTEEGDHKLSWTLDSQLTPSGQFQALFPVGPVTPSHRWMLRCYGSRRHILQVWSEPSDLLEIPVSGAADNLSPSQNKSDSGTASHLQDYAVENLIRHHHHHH
Procedure: as §5

LILRB1 = molecular target: T11, LILRB1 (human, UniProt Q8NHL6 24-461); assay: as above
T11 construct: Bought protein; limits of the extracellular domain are marked by bold type not visible here; whole entry named; also called recombinant human LILRB1; ILT2
T11 sequence (Q8NHL6 other isoform, or with tags, fused parts or gaps): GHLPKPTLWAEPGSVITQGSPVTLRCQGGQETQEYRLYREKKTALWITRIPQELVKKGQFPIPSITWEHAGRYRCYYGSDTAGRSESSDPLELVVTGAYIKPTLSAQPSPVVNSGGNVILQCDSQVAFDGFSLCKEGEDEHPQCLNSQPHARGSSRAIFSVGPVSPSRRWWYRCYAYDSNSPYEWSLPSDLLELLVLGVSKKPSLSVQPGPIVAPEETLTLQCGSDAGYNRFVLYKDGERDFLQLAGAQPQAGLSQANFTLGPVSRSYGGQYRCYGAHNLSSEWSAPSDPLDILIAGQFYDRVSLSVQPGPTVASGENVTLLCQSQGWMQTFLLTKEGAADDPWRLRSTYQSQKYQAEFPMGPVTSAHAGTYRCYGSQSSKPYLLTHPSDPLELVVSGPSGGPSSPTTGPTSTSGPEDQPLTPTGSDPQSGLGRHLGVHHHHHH
Procedure: as §5

[8] = molecular target: T2, recombinant human ILT4 (LILRB2); assay: SPR, Biacore 8K, mAb captured on anti-human Fc, LILRB2 at 100 nM; legend: ++++ tight binding (<100 pM KD)
Procedure: as §5

[9] = molecular target: T1, human ILT4 expressed on cells; assay: flow based HLA-G blocking assay
[10] = molecular target: T2, recombinant human ILT4 (LILRB2); assay: SPR, Biacore T200, medium resolution; koff held at its limit of 4.27e-5 s^-1
Procedure: as §4

[11] = molecular target: T2, recombinant human ILT4 (LILRB2); assay: SPR, high resolution kinetics, triplicate, LALA antibody

T1 sequence (Q8N423 22-597): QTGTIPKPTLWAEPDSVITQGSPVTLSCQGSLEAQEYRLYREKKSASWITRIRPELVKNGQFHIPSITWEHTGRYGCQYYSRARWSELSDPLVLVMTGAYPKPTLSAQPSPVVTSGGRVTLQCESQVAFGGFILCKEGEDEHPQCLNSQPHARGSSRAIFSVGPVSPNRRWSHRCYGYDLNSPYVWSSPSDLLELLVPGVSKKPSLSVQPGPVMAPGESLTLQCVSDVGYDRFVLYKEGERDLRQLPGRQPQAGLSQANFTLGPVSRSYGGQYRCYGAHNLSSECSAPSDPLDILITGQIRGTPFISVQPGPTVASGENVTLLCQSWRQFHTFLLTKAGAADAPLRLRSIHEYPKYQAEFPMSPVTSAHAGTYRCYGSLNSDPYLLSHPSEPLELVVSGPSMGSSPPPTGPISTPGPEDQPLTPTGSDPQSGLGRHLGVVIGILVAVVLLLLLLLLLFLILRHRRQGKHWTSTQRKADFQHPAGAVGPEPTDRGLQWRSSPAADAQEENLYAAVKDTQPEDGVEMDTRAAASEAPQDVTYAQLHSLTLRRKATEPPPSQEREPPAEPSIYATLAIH

B1: L45S4 (antibody, IgG2a, V domains shown)
VH: EVQLQQSGPELVKPGASVKISCKASGYTFTDYYMNWVKQSHGKSLEWIGDINPNNGGTSYNQKFKGKATLTVDKSSSTAYMELRSLTSEDSAVYYCARGGAELTGTYWYFDVWGTGTTVTVSS
VL: DIQMTQSPASLSISVGETVTITCRASENIYSNLAWYQQKQGKSPQVLVYGATNLADGVPSRFSGSGSGTQYSLKIKSLQSEDFGSYYCQHFWDSPFTFGSGTKLEIK
notes: also called Murine 45; mouse anti-human ILT4 antibody L45S4
fold decrease of PE-HLA-G MFI [1]: ≤ 69 fold | IC50 [2]: 0.044 µg/mL | IC50 [3]: 0.071 µg/mL | IL-6 secretion by LPS-stimulated M2 macrophages (MSD), fold over control [4]: 2 fold | Kd [5]: 0.21 nM | koff [5]: 8.4e-05 s⁻¹ | kon [5]: 401000 M⁻¹ s⁻¹

B2: L41S5 (antibody, IgG2a, V domains shown)
VH: QVQLQQSGAELVKPGASVKISCKASGYAFSSYWMNWVKQRPGKGLEWIGQIYPGHGDTNYNGKFKGKATLTADKSSSTAYMQLSSLTSEDSAVYFCAKEGSELGRLFAYWGQGTLVTVSA
VL: QIVLTQSPALMSASPGEKVTMTCSASSSVSFMYWYQQKPRSSPKPWIYLTSNLASGVPARFSGSGSGTSYSLTISSMEAEDAATYYCQQWSSNPPTFGGGTKLEIK
notes: also called mouse anti-human ILT4 antibody L41S5
fold decrease of PE-HLA-G MFI [1]: ≤ 14 fold | IC50 [2]: 0.134 µg/mL

B3: Hz77-LALA (antibody, human IgG1, kappa, L234A L235A, V domains shown)
VH: QVQLVQSGAEVKKPGSSVKVSCKASGYSFTGYSVNWVRQAPGQGLEWIGRINPYNGDIFNNQKFKGRATITVDKSTSTAYMELSSLRSEDTAVYYCARGTTVGGAWFAYWGQGTLVTVSS
VL: DIVMTQSPDSLAVSLGERATINCRASESVDSYGYSFLHWYQQKPGQPPKLLIYLASNLESGIPDRFSGSGSGTDFTLTISSLQAEDVAVYYCQQSNEDLMYTFGGGTKVEIKR
notes: Humanized L77S2, human IgG1 L234A/L235A, kappa; also called Humanized 77_01; Hz 77 01
kon [6]: 4.78e+06 M⁻¹ s⁻¹ | Kd [7]: 5.46 pM | binding result (LILRA2): no binding (tested: 100 nM) | binding result (LILRB3): no binding (tested: 100 nM) | binding result (LILRB4): no binding (tested: 100 nM) | binding result (LILRA3): no binding (tested: 100 nM) | binding result (LILRA1): no binding (tested: 100 nM) | binding result (LILRA4): no binding (tested: 100 nM) | binding result (LILRA6): no binding (tested: 100 nM) | binding result (LILRA5): no binding (tested: 100 nM) | binding result (LILRB1): no binding (tested: 100 nM) | KD [8]: < 0.1 nM | IC50 [9]: 0.176 µg/mL | Kd [10]: ≤ 0.052 nM | koff [10]: ≤ 4.27e-05 s⁻¹ | kon [5]: 835000 M⁻¹ s⁻¹ | Kd [11]: 8.9 pM | koff [11]: 4.24e-05 s⁻¹
